Results reported in patent publication US12007398.

B1: purified anti-CD3 homodimer (product-related impurity isolated from the αCD20/αCD3 TDB purification process) (antibody, V domains shown)
VH: EVQLVQSGAEVKKPGASVKVSCKASGYTFTNYYIHWVRQAPGQGLEWIGWIYPGDGNTKYNEKFKGRATLTADTSTSTAYLELSSLRSEDTAVYYCARDSYSNYYFDYWGQGTLVTVSS
VL: DIVMTQSPDSLAVSLGERATINCKSSQSLLNSRTRKNYLAWYQQKPGQPPKLLIYWASTRESGVPDRFSGSGSGTDFTLTISSLQAEDVAVYYCTQSFILRTFGQGTKVEIK
B2: αCD20/αCD3 TDB (T cell dependent bispecific antibody; anti-CD20 Mab2 / anti-CD3 Mab1) (bispecific antibody, V domains shown)
VH 1: EVQLVESGGGLVQPGGSLRLSCAASGYTFTSYNMHWVRQAPGKGLEWVGAIYPGNGDTSYNQKFKGRFTISVDKSKNTLYLQMNSLRAEDTAVYYCARVVYYSNSYWYFDVWGQGTLVTVSS
VL 1: DIQMTQSPSSLSASVGDRVTITCRASSSVSYMHWYQQKPGKAPKPLIYAPSNLASGVPSRFSGSGSGTDFTLTISSLQPEDFATYYCQQWSFNPPTFGQGTKVEIKR
VH 2: B1 VH
VL 2: B1 VL

What was measured:
[1] = target: T1, CD3e subunit of the T cell receptor on human T cells (human, UniProt P07766 23-207); assay: cell-based or functional assay
T1 sequence (P07766 23-207): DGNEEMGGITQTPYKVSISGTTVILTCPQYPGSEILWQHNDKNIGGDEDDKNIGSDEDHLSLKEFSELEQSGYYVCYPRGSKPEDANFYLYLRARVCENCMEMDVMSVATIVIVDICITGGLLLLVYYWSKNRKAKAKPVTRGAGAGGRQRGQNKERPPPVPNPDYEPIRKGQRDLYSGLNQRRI

[2] = target: T1, CD3e subunit of the T cell receptor on …; assay: cell-based or functional assay; remark: listed apart in the source

| Binder | EC50 of NFκB-luciferase reporter activation, Jurkat/NFκBLuc cells; in absence of target cells [1] [µg/mL] | EC50 of T cell activation (CD69+/CD25+), human PBMC Donor 1; column head: in absence of target cells [1] [µg/mL] | EC50 of T cell activation (CD69+/CD25+), human PBMC Donor 2; column head: in absence of target cells [1] [µg/mL] | luciferase activity of Jurkat/NFκBLuciferase clone 2 in the presence of a CD20 expressing target cell line, relative to anti-CD3 homodimer [2] [fold] | EC50 of NFκB-luciferase reporter activation, Jurkat/NFκBLuc cells; in presence of target cells [1] [µg/mL] | EC50 of T cell activation (CD69+/CD25+), human PBMC Donor 1; in presence of target cells [1] [µg/mL] | EC50 of T cell activation (CD69+/CD25+), human PBMC Donor 2; in presence of target cells [1] [µg/mL] |
| --- | --- | --- | --- | --- | --- | --- | --- |
| B1 | 0.21 | 0.526 | 0.169 | – | – | – | – |
| B2 | – | – | – | 1000 | 0.0013 | 0.0055 | 0.0044 |
